Among the data in patent publication US20160130351A1 (NOVIMMUNE S A, published 2016) are Kd, koff and kon values, retold here.

Holding throughout (experiment): SPR (Biacore 2000), mAb captured on anti-human IgG Fc, analyte in solution, 25 C, 1:1 Langmuir
(In general: In SPR one partner is held on a chip, and binding of the other changes the refractive index at the surface.)

For experiment [1], the target named is soluble human IL-6Rc (shuIL-6Rc) recombinant fusion protein of IL-6R and IL-6 (human) (UniProt P08887).
The target of experiment [2] is T1, carrier-free soluble human IL-6R (R&D) (human, UniProt P08887 20-365).
T1 construct: extracellular domain; also called shuIL-6R; shuIL6-R
T1 sequence (looked up): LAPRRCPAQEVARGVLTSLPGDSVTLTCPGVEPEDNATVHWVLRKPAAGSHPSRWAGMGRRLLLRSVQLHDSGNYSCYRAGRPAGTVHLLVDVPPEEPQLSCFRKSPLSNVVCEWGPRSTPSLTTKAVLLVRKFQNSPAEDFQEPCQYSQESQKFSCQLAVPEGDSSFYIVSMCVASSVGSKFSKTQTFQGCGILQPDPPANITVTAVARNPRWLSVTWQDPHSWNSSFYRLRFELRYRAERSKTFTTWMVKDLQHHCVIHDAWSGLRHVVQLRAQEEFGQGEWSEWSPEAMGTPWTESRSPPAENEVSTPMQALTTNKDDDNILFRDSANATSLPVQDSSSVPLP
The method, then:
(§1) A CM5 Biacore chip was used and 1640 RU (response units) of an anti-human IgG Fc (Biacore AB, Uppsala, Sweden) was immobilized by EDC/NHS chemistry. […] The surface was regenerated after each cycle by injection of 3M magnesium chloride at 20 μL/min, for 30 s followed by lmin of stabilization time in HBS-EP buffer (Biacore AB, Uppsala, Sweden). Binding was measured by passing analytes carrier-free soluble human IL-6R (shuIL6-R; R&D), soluble human IL-6Rc (shuIL-6Rc) and soluble cynomolgus monkey IL-6R (scyIL-6R) in duplicates at the following concentrations: 100 nM, 50 nM, 25 nM, 12.5 nM, 6.25 nM and 0nM. All solutions were diluted in HBS-EP buffer. Injection was performed at 50 μl/min for 3 min followed by 12 min of dissociation time and the temperature was set at 25° C.

Experiment [3] has as its target T2, soluble cynomolgus monkey IL-6R (cynomolgus monkey, UniProt A0A2K5WN54 60-396).
T2 construct: extracellular domain; also called scyIL-6R; soluble cynomolgus monkey IL-6 Receptor; not shown: C-terminal His- or Avi-Tag
T2 sequence: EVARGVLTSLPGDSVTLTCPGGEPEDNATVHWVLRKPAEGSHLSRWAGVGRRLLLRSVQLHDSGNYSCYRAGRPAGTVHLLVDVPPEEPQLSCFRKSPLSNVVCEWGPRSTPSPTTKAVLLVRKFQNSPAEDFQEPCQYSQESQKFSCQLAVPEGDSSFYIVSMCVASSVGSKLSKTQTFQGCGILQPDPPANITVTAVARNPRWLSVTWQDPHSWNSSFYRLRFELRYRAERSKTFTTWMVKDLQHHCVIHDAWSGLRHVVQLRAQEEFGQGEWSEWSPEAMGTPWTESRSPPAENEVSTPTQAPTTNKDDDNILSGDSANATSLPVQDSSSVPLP
The protocol: as §1

B1: NI-1201-A antibody (antibody, V domains shown)
VH: QVQLVQSGAEVKKPGSSVKVSCKASGGTFSSYAISWVRQAPGQGLEWMGGIIPLFDTTKYAQKFQGRVTITADESTSTAYMELSSLRSEDTAVYYCARDRDILTDYYPMGGMDVWGQGTTVTVSS
VL: AIQLTQSPSSLSASVGDRVTITCRASQGISSVLAWYQQKPGKAPKLLIYDASSLESGVPSRFSGSGSGTDFTLTISSLQPEDFATYYCQQSNSYPLTFGGGTKVEIKR
In the case of B1, in experiment [1], the equilibrium dissociation constant (Kd) (commonly a measure of binding affinity in units of concentration) came out at 4.92 nM; the off-rate constant (koff) – broadly, the rate constant with which the complex falls apart – stood at 0.000246 s⁻¹; the kon (usually the rate constant with which the complex forms) stood at 50100 M⁻¹ s⁻¹. In experiment [2], the Kd is 0.121 nM, the off-rate (koff) was 0.00011 s⁻¹ and the kon came out at 829000 M⁻¹ s⁻¹. Besides, in experiment [3], the affinity, expressed as Kd, was 2.05 nM; the koff was found to be 0.000213 s⁻¹; the kon was 104000 M⁻¹ s⁻¹.

B2: NI-1201-D antibody (antibody, V domains shown)
VH: QVQLVQSGAEVKKPGSSVKVSCKASGGTFSSYAISWVRQAPGQGLEWMGGIIPAFETTKYAQKFQGRVTITADESTSTAYMELSSLRSEDTAVYYCARDRDILTDYYPLGGMDVWGQGTTVTVSS
VL: AIQLTQSPSSLSASVGDRVTITCRASQGISSVLAWYQQKPGKAPKLLIYDASSLESGVPSRFSGSGSGTDFTLTISSLQPEDFATYYCQQSQSYPLTFGGGTKVEIKR
For B2, in experiment [1], the Kd was 4.89 nM, the off-rate constant (koff) amounted to 0.000222 s⁻¹ and the kon was found to be 45300 M⁻¹ s⁻¹. Besides, in experiment [2], binding was put at a Kd of 0.134 nM, the koff was 0.000102 s⁻¹ and the on-rate (kon) came out at 761000 M⁻¹ s⁻¹. In experiment [3], this molecule had a Kd of 1.79 nM, a koff of 0.0002 s⁻¹ and a kon of 112000 M⁻¹ s⁻¹.

B3: NI-1201-B antibody (antibody, V domains shown)
VH: QVQLVQSGAEVKKPGSSVKVSCKASGGTFSSYAISWVRQAPGQGLEWMGGIIPLFDTTKYAQKFQGRVTITADESTSTAYMELSSLRSEDTAVYYCARDRDILTDYYPLGGMDVWGQGTTVTVSS
VL: AIQLTQSPSSLSASVGDRVTITCRASQGISSVLAWYQQKPGKAPKLLIYDASSLESGVPSRFSGSGSGTDFTLTISSLQPEDFATYYCQQSNSYPLTFGGGTKVEIKR
On to B3, for which the Kd in experiment [1] is 4.43 nM; in experiment [2], 0.107 nM; in experiment [3], 1.81 nM. Further, the results for the off-rate (koff) in experiment [1], in experiment [2] and in experiment [3] were 0.000237 s⁻¹, 9.4e-05 s⁻¹ and 0.000207 s⁻¹, respectively. In addition, the kon in experiment [1] was 53400 M⁻¹ s⁻¹; in experiment [2], 875000 M⁻¹ s⁻¹; in experiment [3], 115000 M⁻¹ s⁻¹.

B4: NI-1201-C antibody (antibody, V domains shown)
VH: QVQLVQSGAEVKKPGSSVKVSCKASGGTFSSYAISWVRQAPGQGLEWMGGIIPAFETTKYAQKFQGRVTITADESTSTAYMELSSLRSEDTAVYYCARDRDILTDYYPLGGMDVWGQGTTVTVSS
VL: AIQLTQSPSSLSASVGDRVTITCRASQGISSVLAWYQQKPGKAPKLLIYDASSLESGVPSRFSGSGSGTDFTLTISSLQPEDFATYYCQQSNSYPLTFGGGTKVEIKR
As for B4, in experiment [1], the Kd was 5.03 nM, the koff was 0.00024 s⁻¹ and the kon came to 47700 M⁻¹ s⁻¹. Moreover, in experiment [2], the Kd worked out at 0.11 nM, the off-rate (koff) was 0.00011 s⁻¹ and the kon came out at 992000 M⁻¹ s⁻¹. Also, in experiment [3], the dissociation constant Kd was found to be 2.03 nM, the koff was 0.000225 s⁻¹ and the kon was 111000 M⁻¹ s⁻¹.
